# Reference: paper PMC2915760
# B1: Lyp (lymphoid-specific protein tyrosine phosphatase, PTPN22), wild-type (Homo sapiens) (protein)
# chain: MDQREILQKFLDEAQSKKITKEEFANEFLKLKRQSTKYKADKTYPTTVAEKPKNIKKNRYKDILPYDYSRVELSLITSDEDSSYINANFIKGVYGPKAYIATQGPLSTTLLDFWRMIWEYSVLIIVMACMEYEMGKKKCERYWAEPGEMQLEFGPFSVSCEAEKRKSDYIIRTLKVKFNSETRTIYQFHYKNWPDHDVPSSIDPILELIWDVRCYQEDDSVPICIHCSAGCGRTGVICAIDYTWMLLKDGIIPENFSVFSLIREMRTQRPSLVQTQEQYELVYNAVLELFKRQM
# Substrate: O=[N+]([O-])c1ccc(OP(=O)(O)O)cc1
# Experiment: purified protein
protein,measurement,value
B1,Km,4.86 ± 0.39 mM
